3 molecules from US20220220214A1 (AB INITIO BIOTHERAPEUTICS, published 2022) can be followed below.

Test [1] deals with T1, apelin (APJ) receptor on APJ-expressing cells (Homo sapiens (Human), UniProt P35414 1-380).
T1 sequence: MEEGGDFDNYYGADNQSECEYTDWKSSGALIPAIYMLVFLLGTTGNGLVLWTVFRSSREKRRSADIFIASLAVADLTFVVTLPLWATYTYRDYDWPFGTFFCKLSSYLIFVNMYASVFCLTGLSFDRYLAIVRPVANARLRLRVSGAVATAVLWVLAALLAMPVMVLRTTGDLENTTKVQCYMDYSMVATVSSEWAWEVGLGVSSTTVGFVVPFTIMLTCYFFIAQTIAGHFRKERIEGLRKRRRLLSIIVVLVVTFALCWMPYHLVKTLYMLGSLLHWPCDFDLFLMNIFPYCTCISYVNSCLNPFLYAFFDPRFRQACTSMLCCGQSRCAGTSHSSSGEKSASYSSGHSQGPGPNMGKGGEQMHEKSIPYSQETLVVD
As to the kind of experiment: cell-based or functional assay.

Test [2] concerns the target T1, apelin (APJ) receptor on APJ-expressing …. As to the kind of experiment: method not stated (Example 2).
For test [3], the target named is T2, mouse APJ receptor expressed on CT26 cells (mouse, UniProt Q9WV08 1-377).
T2 construct: whole, on cells
T2 sequence (looked up): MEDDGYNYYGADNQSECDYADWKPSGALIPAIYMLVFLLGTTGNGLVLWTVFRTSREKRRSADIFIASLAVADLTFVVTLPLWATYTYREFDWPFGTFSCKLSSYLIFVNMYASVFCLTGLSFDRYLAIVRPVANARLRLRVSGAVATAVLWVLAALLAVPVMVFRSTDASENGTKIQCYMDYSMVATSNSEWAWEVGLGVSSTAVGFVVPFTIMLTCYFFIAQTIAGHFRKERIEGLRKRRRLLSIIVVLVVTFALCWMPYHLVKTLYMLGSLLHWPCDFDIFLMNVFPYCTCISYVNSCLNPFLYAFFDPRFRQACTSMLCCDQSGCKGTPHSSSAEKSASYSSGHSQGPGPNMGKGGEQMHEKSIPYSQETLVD
As to the kind of experiment: binding to the surface of CT26 cells.

B1: VHH-23 (VHH)
VHH: QVQLQESGGGLVQAGGSLRLSCAASGNISPFRAMGWYRQAPGKEREFVAAINTGAITNYADSVKGRFTISRDNAKNTVYLQMNSLKPEDTAVYYCAASCRAYASRIDLFSYHTYWGQGTQVTVSS
notes: Nanobody
For the molecule B1, the “Fold suppression (saturated), β-arrestin signaling” value in test [1] came out at 8.5 fold. The Ki – broadly, a dissociation constant, usually derived from enzyme kinetics or from competition with a known ligand – in test [2] came out at 39 nM.

B2: VHH-22 (VHH)
VHH: QVQLQESGGGLVQAGGSLRLSCAASGNIFRGRVMGWYRQAPGKEREFVAGIDYGASTNYADSVKGRFTISRDNAKNTVYLQMNSLKPEDTAVYYCAARLSERRRLEGYWSAVHVYWGQGTQVTVSS
notes: Nanobody
Regarding B2, the “Fold suppression (saturated), β-arrestin signaling” value in test [1] is 5.9 fold. In addition, the Kd (as a rule, the free concentration of one partner at which half of the binding sites on the other are occupied at equilibrium, for simple one-to-one binding) in test [2] came out at 13 nM.

B3: VHH-21 (VHH)
VHH: QVQLQESGGGLVQAGGSLRLSCAASGSISVGYLMGWYRQAPGKERELVAGINYGSNTYYADSVKGRFTISRDNAKNTVYLQMNSLKPEDTAVYYCAASQRRAYAARIDLFSYHTYWGQGTQVTVSS
notes: Nanobody; VHH-21-Fc (aglycosylated human IgG1 Fc) was used in vivo; also called negative allosteric modulator VHH-21
As to B3, in test [3], the Kd was around 100 nM.
